{"source": "paper PMC8206089", "about": "“Split NanoLuc technology allows quantitation of interactions between PII protein and its receptors with unprecedented sensitivity and reveals transient interactions” (Scientific Reports, 2021)", "key": {"[1]": {"target": "NAGK (Synechococcus elongatus) (UniProt Q6V1L5)", "sequence (Q6V1L5 whole entry)": "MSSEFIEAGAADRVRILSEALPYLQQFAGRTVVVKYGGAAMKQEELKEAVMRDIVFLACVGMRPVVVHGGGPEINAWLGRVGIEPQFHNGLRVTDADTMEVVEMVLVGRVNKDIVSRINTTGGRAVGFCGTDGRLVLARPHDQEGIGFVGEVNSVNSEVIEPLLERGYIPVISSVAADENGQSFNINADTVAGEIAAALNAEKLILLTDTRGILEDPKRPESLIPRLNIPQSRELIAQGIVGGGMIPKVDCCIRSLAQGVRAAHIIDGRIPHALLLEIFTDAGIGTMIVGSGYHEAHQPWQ", "experiment": "ultrafiltration", "conditions": "cited from earlier work"}, "[2]": {"target": "PII-LgBiT (wild-type PII protein from Synechocystis sp. PCC6803 fused to Large BiT) (Synechocystis sp. PCC6803) (UniProt Q55247)", "sequence (Q55247 whole entry, the tested form may be a part)": "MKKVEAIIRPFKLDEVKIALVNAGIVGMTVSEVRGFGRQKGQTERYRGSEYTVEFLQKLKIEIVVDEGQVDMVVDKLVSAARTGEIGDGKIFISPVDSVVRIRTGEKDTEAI", "experiment": "split reporter (BiFC, NanoBiT); competition; 10 pM PII-LgBiT trimer with PipX (180, 900, 1800 nM monomer) 15 min at 30 °C, then 180 nM NAGK-SmBiT monomer for 30 min; 2 mM ATP"}, "[3]": {"target": "PII-LgBiT (wild-type PII protein from Synechocystis sp. PCC6803 fused to Large BiT) (Synechocystis sp. PCC6803) (UniProt Q55247)", "experiment": "split reporter (BiFC, NanoBiT); time course; 10 pM PII-LgBiT and 10 nM PipX-SmBiT; complex formed with 2 mM ATP, then 2 mM 2-OG added"}, "[4]": {"target": "PII-LgBiT (wild-type PII protein from Synechocystis sp. PCC6803 fused to Large BiT) (Synechocystis sp. PCC6803) (UniProt Q55247)", "experiment": "split reporter (BiFC, NanoBiT); time course; 10 pM PII-LgBiT and 10 nM PipX-SmBiT; ATP/ADP mixtures at a total ADP + ATP concentration of 2 mM"}, "[5]": {"target": "PII-LgBiT (wild-type PII protein from Synechocystis sp. PCC6803 fused to Large BiT) (Synechocystis sp. PCC6803) (UniProt Q55247)", "experiment": "split reporter (BiFC, NanoBiT); time course; 10 pM PII-LgBiT and 10 nM PipX-SmBiT; complex formed with 1 mM ATP + 1 mM ADP, then 2 mM 2-OG added"}, "[6]": {"target": "PII-LgBiT (wild-type PII protein from Synechocystis sp. PCC6803 fused to Large BiT) (Synechocystis sp. PCC6803) (UniProt Q55247)", "experiment": "split reporter (BiFC, NanoBiT); in solution; PipX-SmBiT (0-800 nM) titrated to 10 pM PII-LgBiT trimer; 2 mM ADP; 50 mM Tris/HCl pH 7.6, 100 mM KCl, 10% glycerol, 2 mM MgCl2, 0.1% BSA; 15 min at 30 °C; KD from half-maximal luminescence"}, "[7]": {"target": "PII-LgBiT (wild-type PII protein from Synechocystis sp. PCC6803 fused to Large BiT) (Synechocystis sp. PCC6803) (UniProt Q55247)", "experiment": "split reporter (BiFC, NanoBiT); in solution; PipX-SmBiT (0-800 nM) titrated to 10 pM PII-LgBiT trimer; 2 mM ATP; 50 mM Tris/HCl pH 7.6, 100 mM KCl, 10% glycerol, 2 mM MgCl2, 0.1% BSA; 15 min at 30 °C; KD from half-maximal luminescence"}}, "note": "pKd: −log10 of the molar value."}
{"substance": "PII (from UniProt P0A3F4)", "values": [{"measurement": "pKd", "setting": "[1]", "value": 7.14}]}
{"substance": "PipX (without SmBiT, competitor) (natural protein)", "values": [{"measurement": "luminescence signal of PII-LgBiT with NAGK-SmBiT left at PipX 1:1 to NAGK (2 mM ATP)", "setting": "[2]", "value": 50, "unit": "%"}]}
{"substance": "PipX-SmBiT (PII-interacting protein X fused to Small BiT) (natural protein)", "values": [{"measurement": "time until half of the complex was dissociated after adding 2 mM 2-OG (2 mM ATP)", "setting": "[3]", "value": 45, "unit": "s"}, {"measurement": "luminescence signal with 0.5 mM ADP + 1.5 mM ATP (percent)", "setting": "[4]", "value": 80, "unit": "%"}, {"measurement": "time until half of the complexes was dissociated after adding 2 mM 2-OG (1 mM ATP + 1 mM ADP)", "setting": "[5]", "value": 340, "unit": "s"}, {"measurement": "pKd", "setting": "[6]", "value": 8.24}, {"measurement": "pKd", "setting": "[7]", "value": 7.28}]}
